{
  "source": "patent US20200024354A1",
  "about": "(OSSIANIX, published 2020)",
  "key": {"[1]": {"target": "recombinant human BAFF-Fc (Sino Biological) (human) (UniProt Q9Y275)", "sequence (Q9Y275 134-285)": "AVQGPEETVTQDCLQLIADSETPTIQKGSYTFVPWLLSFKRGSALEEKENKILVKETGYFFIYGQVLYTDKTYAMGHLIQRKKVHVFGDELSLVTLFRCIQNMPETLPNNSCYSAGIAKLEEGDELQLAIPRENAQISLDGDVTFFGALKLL", "experiment": "cell-based or functional assay"}, "[2]": {"target": "recombinant mouse BAFF (R&D Systems) (mouse, UniProt Q9WU72 127-309)", "sequence (Q9WU72 127-309 limits assumed)": "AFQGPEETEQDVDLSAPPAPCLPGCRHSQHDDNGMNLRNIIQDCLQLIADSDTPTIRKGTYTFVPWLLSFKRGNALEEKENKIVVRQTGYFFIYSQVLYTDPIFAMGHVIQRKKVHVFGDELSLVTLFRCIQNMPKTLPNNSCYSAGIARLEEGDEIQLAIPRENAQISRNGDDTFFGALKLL", "experiment": "cell-based or functional assay"}, "human BAFF (recombinant) [3]": {"target": "T1, human BAFF (recombinant) (human, UniProt Q9Y275 134-285)", "T1 construct": "also called hBAFF; recombinant BAFF (Sino biologicals)", "T1 sequence (Q9Y275 134-285 limits assumed)": "as the sequence (Q9Y275 134-285) above", "experiment": "ELISA on coated human BAFF"}, "human BAFF (recombinant) [4]": {"target": "T1, human BAFF (recombinant)", "experiment": "ELISA on coated human BAFF (legend of FIG. 18; rounded form of 0.632 nM)", "description": "Based on the results of Example 11, the A07 anti-BAFF molecule was reformatted as a mouse Fc fusion protein with effector function intact. The protein was expressed and purified as described above and EC50 binding to human BAFF was assessed by ELISA as previously described. […] Mice are then injected i.p. with 100 μg of A07-Fc, 5A7-Fc, or blank control (PBS) on day 0 and again on day 4, 8, and 12 before being be culled on day 15. B cell subset populations in the spleen are analysed by flow cytometry as described above and improvements in B cell depletion are anticipated."}, "[5]": {"target": "T2, recombinant human BAFF-Fc (Sino Biological) (human, UniProt Q9Y275 134-285)", "T2 sequence (Q9Y275 134-285)": "as above", "experiment": "cell-based or functional assay"}, "[6]": {"target": "T2, recombinant human BAFF-Fc (Sino …)", "experiment": "blocking ELISA: periplasmic extract + 1.14 nM BAFF-Fc on coated BAFF-R extracellular domain, anti-human Fc-HRP", "description": "The ability of selected BAFF-specific VNARs to prevent the binding of BAFF to its receptor (BAFF-R) was tested in a blocking ELISA format. Briefly, selected clones were grown in 96 deep-well plates and the periplasmic fraction was extracted as described above. Nunc Maxisorp 96-well plates were coated at 1 μg/mL with the BAFF-R extracellular domain (Peprotech) and blocked in PBS-0.1% Tween+2.5% milk. The periplasmic fraction was also pre-blocked in PBS-0.1% Tween-20+2.5% milk in the presence of 1.14 nM BAFF-Fc (Sino Biological) before being exposed to the BAFF-R coated surface. After washing in PBS-0.1% Tween-20, BAFF bound to its receptor was detected via its Fc moiety using a peroxidase-conjugated anti-human Fc (Sigma). Absorbance at 450 nm was recorded using an Envision multiwell reader (Perkin Elmer) (FIG. 8) and clones reducing the amount of BAFF bound to its receptor by more than 50% were selected as specific blockers."}},
  "data": [
    {"molecule": "BAFFr (positive control, Example 10) (from UniProt Q96RJ3 1-76) (receptor)", "values": [
      {"measurement": "IC50 (human), proliferation of mouse splenic B cells", "setting": "[1]", "result": 66.2, "unit": "nM"},
      {"measurement": "IC50 (mouse), proliferation of mouse splenic B cells", "setting": "[2]", "result": 7.06, "unit": "nM"}
    ]},
    {"molecule": "A07 formatted as a mouse Fc fusion protein with effector function intact (Fc fusion, also called A07-mFc; not shown: mouse Fc with effector function) AQAAARVDQTPQTITKETGESLTINCVLRDSNCALSNLYWYRKKSGSTNEESISLGGRYVETVNSGSKSFSLRINDLTVEDSGTYRCKVQLPYDPLTKECILGRMDVYGDGTAVTVNAASGAHHHHHHGADYKDDDDK", "values": [
      {"measurement": "EC50", "setting": "human BAFF (recombinant) [3]", "result": "~0.632", "unit": "nM"},
      {"measurement": "EC50", "setting": "human BAFF (recombinant) [4]", "result": "~0.6", "unit": "nM"}
    ]},
    {"molecule": "B07 formatted as a human Fc fusion (Fc fusion, not shown: a dimerising Fc or GST) AQAAARVDQTPRSVTKETGESLTINCVLRDSICALSSTHWYRKKSGSTNEESISKGGRYVETVNSGSKSFSLRINDLTVEDSGTYRCKVHGGRSTGLCGDVLLAGDVYGGGTAVTVN", "values": [
      {"measurement": "IC50 (human), proliferation of mouse splenic B cells", "setting": "[5]", "result": 3.79, "unit": "nM"},
      {"measurement": "IC50 (mouse), proliferation of mouse splenic B cells", "setting": "[2]", "result": 604, "unit": "nM"}
    ]},
    {"molecule": "A07 formatted as a human Fc fusion (Fc fusion, not shown: a dimerising Fc or GST) AQAAARVDQTPQTITKETGESLTINCVLRDSNCALSNLYWYRKKSGSTNEESISLGGRYVETVNSGSKSFSLRINDLTVEDSGTYRCKVQLPYDPLTKECILGRMDVYGDGTAVTVN", "values": [
      {"measurement": "IC50 (human), proliferation of mouse splenic B cells", "setting": "[5]", "result": 2.48, "unit": "nM"},
      {"measurement": "IC50 (mouse), proliferation of mouse splenic B cells", "setting": "[2]", "result": 1.95, "unit": "nM"}
    ]},
    {"molecule": "ID2-101B08 (VNAR, Nurse shark VNAR single domain, monomer in periplasmic extract) VNAR: AARVDQTPQTITKETGESLTINCVLRDSNCALSSTLWYRTKSGSRNEESISKGGRYVETVNSGSKSFSLKINDLTVEDSGTYRCKVPRDLLLCKRPRARLPDVYGGGTAVTVNA", "values": [
      {"measurement": "binding result", "setting": "[6]", "result": "binds"}
    ]}
  ]
}
